For 1 substance, p53-mediated apoptosis (TUNEL assay, percent of apoptotic cells) in CEFs co-transfected with Flag-p53 and Flag-Meq results are on record in PMC2999606.

The test addresses Flag-tagged chicken p53 (chicken) (UniProt P10360).
UniProt P10360, sequence (P10360 whole entry): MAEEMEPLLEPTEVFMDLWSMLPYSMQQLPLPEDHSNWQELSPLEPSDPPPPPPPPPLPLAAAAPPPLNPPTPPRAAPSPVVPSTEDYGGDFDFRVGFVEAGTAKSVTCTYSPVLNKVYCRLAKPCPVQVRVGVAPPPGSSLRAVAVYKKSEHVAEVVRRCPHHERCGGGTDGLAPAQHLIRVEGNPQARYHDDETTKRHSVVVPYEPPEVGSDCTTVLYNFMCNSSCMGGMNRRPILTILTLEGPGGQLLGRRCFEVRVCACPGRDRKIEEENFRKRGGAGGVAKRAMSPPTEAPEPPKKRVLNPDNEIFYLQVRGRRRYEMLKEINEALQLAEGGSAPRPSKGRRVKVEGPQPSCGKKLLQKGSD

Turning to GFP-tagged Meq (natural protein), the p53-mediated apoptosis (TUNEL assay, percent of apoptotic cells) in CEFs co-transfected with Flag-p53 and Flag-Meq at 1:10 molar ratio; approximately 46% with Flag-p53 alone was 12 % of cells.
